Assay results as given in patent US20170022273A1 (SORRENTO THERAPEUTICS, published 2017).

How the values were obtained:
[1] = biological target: T1, Recombinant human LAG3/His (human, UniProt P18627 23-450); assay: Biacore SPR, antibody captured on anti-human Fc CM5 chip, LAG3/His as analyte, 1:1 Langmuir fit
T1 construct: Analyte in the Biacore assay, serially diluted in HBS-EP; not shown: His tag
T1 sequence (looked up): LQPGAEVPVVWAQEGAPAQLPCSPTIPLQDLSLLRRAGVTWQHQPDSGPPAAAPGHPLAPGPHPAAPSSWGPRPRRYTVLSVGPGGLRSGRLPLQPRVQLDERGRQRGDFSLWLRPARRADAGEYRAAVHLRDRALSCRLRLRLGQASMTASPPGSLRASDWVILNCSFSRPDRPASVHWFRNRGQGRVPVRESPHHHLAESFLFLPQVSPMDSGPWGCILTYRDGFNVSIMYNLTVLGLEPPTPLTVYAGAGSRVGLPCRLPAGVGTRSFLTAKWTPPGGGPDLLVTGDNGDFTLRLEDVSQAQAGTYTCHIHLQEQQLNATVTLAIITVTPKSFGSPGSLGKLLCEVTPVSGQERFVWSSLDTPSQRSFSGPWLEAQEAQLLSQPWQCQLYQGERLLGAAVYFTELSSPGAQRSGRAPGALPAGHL
Method: The binding affinity of antibody L3C5 for human LAG3 was also tested using a BiaCore assay. […] Biacore was used to measure the affinity of LAG3 antibody L3C5. Anti-human Fc antibody (GE, BR-1008-39) was immobilized on CM5 sensor chip to approximately 5000 RU using standard NHS/EDC coupling methodology. Antibody (approximately 2 ug/ml) were captured for 60 s at a flow rate 10 uL/min. Recombinant human LAG3/His was serially diluted in running buffer (HBS-EP). All measurements were conducted with a flow rate of 30 μL/min Surfaces were regenerated with 3M MgCl2 (from human antibody kit) for 60 s. A 1:1 (Langmuir) binding model was used to fit the data.

[2] = biological target: T2, recombinant human LAG3/Fc (human, UniProt P18627 23-450); assay: ELISA, plate coated with 2 ug/mL recombinant human LAG3/Fc, IgG about 5ug/ml
T2 construct: Coated on the ELISA plate at 2 ug/mL; not shown: Fc part of the LAG3/Fc fusion
T2 sequence (looked up): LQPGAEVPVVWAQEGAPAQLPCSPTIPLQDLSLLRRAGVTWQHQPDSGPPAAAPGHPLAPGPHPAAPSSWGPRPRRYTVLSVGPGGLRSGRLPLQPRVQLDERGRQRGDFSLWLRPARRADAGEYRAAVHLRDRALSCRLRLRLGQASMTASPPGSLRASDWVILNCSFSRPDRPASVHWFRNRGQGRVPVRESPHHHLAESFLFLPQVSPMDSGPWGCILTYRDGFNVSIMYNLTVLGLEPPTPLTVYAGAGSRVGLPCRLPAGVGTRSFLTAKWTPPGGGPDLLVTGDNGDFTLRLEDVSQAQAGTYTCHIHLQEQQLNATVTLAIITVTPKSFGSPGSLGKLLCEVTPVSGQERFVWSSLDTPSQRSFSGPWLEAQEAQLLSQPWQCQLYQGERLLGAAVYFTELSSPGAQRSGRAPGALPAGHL
Method: (§1) An analysis of the cross-reactivity of various LAG3 antibodies to recombinant mouse LAG3 and human LAG3 was also performed. A Maxisorb ELISA plate was coated with 2 ug/mL recombinant human, and mouse LAG3/Fc (blank: PBS). Incubated overnight at 4° C. The plate was washed 3 times with PBS-Tween (PBST), then blocked with Casein blocking buffer for 1 hour at room temperature. Next, IgGs diluted in casein (about 5ug/ml) were added, and incubated 30 min with shaking. The plate was washed 3 times with PBST. Horseradish peroxidase (HRP)-conjugated goat anti-human Lambda HRP (1:1000 in casein) was added, then 3,3′,5,5′-Tetramethylbenzidine (TMB) was added as substrate and developed 30 min 2M H2SO4 was used to stop the reaction and the OD was read at 450 nm Anti-AIP antibody C7 was used as a control antibody.

[3] = biological target: T3, recombinant mouse LAG3/Fc (mouse, UniProt Q61790 24-442); assay: ELISA, plate coated with 2 ug/mL recombinant mouse LAG3/Fc, anti-human Lambda HRP detection
T3 construct: Coated on the ELISA plate at 2 ug/mL; not shown: Fc part of the LAG3/Fc fusion
T3 sequence (looked up): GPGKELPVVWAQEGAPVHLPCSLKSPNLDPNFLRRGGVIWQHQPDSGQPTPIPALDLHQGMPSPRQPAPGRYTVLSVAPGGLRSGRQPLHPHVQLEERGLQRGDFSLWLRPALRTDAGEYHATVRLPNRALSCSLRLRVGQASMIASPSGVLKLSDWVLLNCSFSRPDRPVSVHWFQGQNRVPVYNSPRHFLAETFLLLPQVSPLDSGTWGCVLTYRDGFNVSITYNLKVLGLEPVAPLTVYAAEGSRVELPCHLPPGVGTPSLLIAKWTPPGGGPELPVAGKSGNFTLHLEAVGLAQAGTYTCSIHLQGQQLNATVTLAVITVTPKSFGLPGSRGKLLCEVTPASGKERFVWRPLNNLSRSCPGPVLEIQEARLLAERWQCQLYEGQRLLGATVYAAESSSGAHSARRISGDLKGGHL
Method: as §1

B1: L3C5 (antibody, V domains shown)
VH: QVQLVQSGSELKKPGASVKVSCKASGYTFTNYYMHWVRQAPGQGLEWMGIINPSGGATNYAQKFQGRVTMTRDTSTSTVYMELSSLRSEDTAVYYCARDSGYDLGYGMDVWGQGTLVTVSS
VL: QSVLTQPASVSGSPGQSITISCTGTSSDVGGYNYVSWYQQHPGKAPKLMIYDVSNRPSGASNRFSGSKSGNTASLTISGLQAEDEADYYCSSYTNRNTLLFGGGTKLTVL
notes: Captured on an anti-human Fc antibody chip in the Biacore assay, so a whole antibody with a human Fc; also called LAG3 antibody L3C5; 13
Binder B1 has a Ka [1] of 6.6e+06 M⁻¹, a Kd [1] of 0.152 µM and a koff [1] of 0.0717 s⁻¹. It also gave a kon [1] of 473000 M⁻¹ s⁻¹.

B2: L33H11 (antibody, V domains shown)
VH: QVQLVQSGAEVKKPGASVKVSCKASGYTFTSYYMHWVRQAPGQGLEWMGIINPSAGSTSYAQKFQGRVTMTRDTSTSTVYMELSSLRSEDTAVYYCARELMATGGFDYWGQGTLVTVSS
VL: LPVLTQPASVSGSPGQSITISCTGTSSDVGGYNYVSWYQQHPGKAPKLMIYDVTNRPSGVSNRFSGSKSGNTASLTISGLQAEDEADYYCSSYTSSNTLLFGGGTQLTVL
notes: Tested as a fully human IgG with a lambda light chain; also called anti-hLAG3 antibody L33H11
B2: binds [2]; no binding (tested: about 5ug/ml) [3].

B3: L32D10 (antibody, V domains shown)
VH: QVQLVQSGAEVKKPGASVKVSCKASGYTFTSYYMHWVRQAPGQGLEWMGIINPSAGSTSYAQKFQGRVTMTRDTSTSTVYMELSSLRSEDTAVYYCARELMATGGFDYWGQGTLVTVSS
VL: QSVLTQPPSASGSPGQSVTISCTGTSSDVGGYDYVSWYQQHQGKAPKLMIYDVSNRPSGVSNRFSGSKSGNTASLTISGLQAEDEADYYCSSYTSSTTLVFGGGTKLTVL
notes: Tested as a fully human IgG with a lambda light chain; also called anti-hLAG3 antibody L32D10
B3: binds [2]; no binding (tested: about 5ug/ml) [3].

B4: L35G6 (antibody, V domains shown)
VH: QVQLVQSGAEVKKPGASVKVSCKASGYTFTSYYMHWVRQAPGQGLEWMGIINPSAGSTSYAQKFQGRVTMTRDTSTSTVYMELSSLRSEDTAVYYCARELMATGGFDYWGQGTLVTVSS
VL: QAGLTQPASVSGSPGQSITISCTGSSSDVGGYSYVSWYQKHPGKAPKLMIYDVTNRPSGVSNRFSGSKSGNTASLTISGLQAEDEADYYCSTYTRSNTLVFGPGTKVTVL
notes: Tested as a fully human IgG with a lambda light chain (detected with anti-human Lambda HRP); also called anti-hLAG3 antibody L35G6
B4: binds [2]; no binding (tested: about 5ug/ml) [3].

B5: L35D4 (antibody, V domains shown)
VH: QVQLVQSGAEVKKPGASVKVSCKASGYTFTSYYMHWVRQAPGQGLEWMGIINPSAGSTSYAQKFQGRVTMTRDTSTSTVYMELSSLRSEDTAVYYCARELMATGGFDYWGQGTLVTVSS
VL: QSVLTQPPSASGSPGQSVTISCTGTSSDVGGYNYVSWYQQYPGKAPRLMIFEVTERASGVPDRFSGSKSGNTASLTVSGLQTEDEAVYFCSSYSGSNNPGAMFGGGTKLTVL
notes: Tested as a fully human IgG with a lambda light chain; also called anti-hLAG3 antibody L35D4
B5: binds [2]; no binding (tested: about 5ug/ml) [3].

B6: L32A9 (antibody, V domains shown)
VH: QVQLVQSGAEVKKPGASVKVSCKASGYTFTSYYMHWVRQAPGQGLEWMGIINPSAGSTSYAQKFQGRVTMTRDTSTSTVYMELSSLRSEDTAVYYCARELMATGGFDYWGQGTLVTVSS
VL: QSVVTQPPSVSAAPGQKVTISCSGSSSNIGNNYVSWYQQLPGTAPKLLIYDNNKRHSGIPDRFSGSTSDTSATLGITRLQTGDEADYYCGTWDSSLSAYVFGTGTKVTVL
notes: Tested as a fully human IgG with a lambda light chain; also called anti-hLAG3 antibody L32A9
B6: binds [2]; no binding (tested: about 5ug/ml) [3].

B7: L32A4 (antibody, V domains shown)
VH: QVQLVQSGAEVKKPGASVKVSCKASGYTFTSYYMHWVRQAPGQGLEWMGIINPSAGSTSYAQKFQGRVTMTRDTSTSTVYMELSSLRSEDTAVYYCARELMATGGFDYWGQGTLVTVSS
VL: QSVLTQPASVSGSPGQSITISCTGTSSDIGAYNFVSWYQQHPGKAPKLMIYGVSNRPSGVSSRFSGSKSGSTASLTISGLQAEDEADYYCSSYTTSGSAVFGTGTKLTVL
notes: Tested as a fully human IgG with a lambda light chain; also called anti-hLAG3 antibody L32A4
B7: binds [2]; no binding (tested: about 5ug/ml) [3].
